Experiment: yeast display, Sf9 membrane polyspecificity reagent, FACS + sequencing; frameworks hold sequencing errors
Outline: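 Nanobodies came from a synthetic yeast display library in Saccharomyces cerevisiae BJ5465, induced with galactose for 36–48 hours and stained for 1 hour at 4 °C with 10% biotinylated, detergent-solubilized Sf9 membrane reagent. Cells were enriched on streptavidin microbeads and then FACS-sorted, with low and high (top ~1%) gates set on anti-HA fluorescence for expression and streptavidin fluorescence for reagent binding. Each polyreactivity label reflects the gate a clone came from. Genes were amplified by colony PCR, sequenced by MiSeq 2 × 250 and filtered by CDR length.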

Row | Sequence | polyreactivity (PSR sort gate)
1 | QVQLVESGGGLVQAGGSLRLSCAASGRTFTGNVMGWYRQAPGKERELVAAISRSGTSTYYADSVKGRFTISRDNAKNTVYLQMNSLKPEDTAVYYCAARRTAGYRSGEYDYWGQGTQVTVSS | high polyreactivity
2 | QVQLVESGGGLVQAGGSLRLSCAASGIIYVYAMGWYRQAPGKERELVAAITWSGGSTYYADSVKGRFTISRDNAKNTVYLQMNTLKPEDTAVYYCARGQGGEYDLDYDYWGQGTQVTVSS | low polyreactivity
3 | QVQLVESGGGLVQAGGILRLSCAASGIIFRVNAMGWYRKAPGKERELVAAISGSGGRTYYADSVKGRFTISRDNAKNTVYLQMNSVKPEDTAVYYCAAHLLHYRGDYWGQGTQETVSS | high polyreactivity
4 | QVQLVESGGGLVQAGGSLRLSCAASGRIFDYYAMGWYRQAPGKERELVAAISLIGASTYYADSVKGRFTISRDNAKNTVYLQMNSLKPEDTAVYYCAAEFYLRRFKVTKRYWFDYWGQGTQVTVSS | low polyreactivity
5 | QVQLVESGGGLVQAGGSLRLSCAASGSTFGPYAMGWYRQAPGKERELVAAISSRGARTYYADSVKGRFTISRDNAKNTVYLQMNSLKPEDTAVYYCANTYHGTAYDYWGQGTQVTVSS | high polyreactivity
6 | QVQLVESGGGLVQAGGSLRLSCAASGRIIKFYAMGWYRQAPGKERELVARISRSGGRTYYADSVKGRFTISRDNAKNTVYLQMNSLKPEDTAVYYCAADTQSVATYDYWGQGTQVTVSS | low polyreactivity
7 | QVQLVESGGGLVQAGGSLRLSCAASGFIFWQNAMGWSRQAPGKEREWVADISWSGGGSTYYADSVKGRFTISRDNAKNTVYLQMNSLKPADTALYYCAASQVYSYYGTYYSAYDYWGQGTQVTVSS | low polyreactivity
8 | QVQLVESGGGLVQAGGCLRLSCAASGFTFKTYAMGWYRQAPGKEREFVAAITTRVGSTYYADSVKGRFSISRDNAKNTVYLQMISLKPEDTAVYYCNYNFNYPYYRYGYWGQGTQVTVSS | high polyreactivity
9 | HVQLQESGGGLVQAGGSLRLSCAASGSIYQATYMGWYRQAPGKEREFVASITYGSITNYADSVKGRFTIGRDNANDTLYLQMNSLKPEDTAVYYCSVDRHYYWGQGTQVTVST | low polyreactivity
10 | QVQLVESGGGLVQAGGSLRLSCADSGRTFRGNAMGWYRQAPGKERELVAAISWSGDSTYYADSVKGRFTISRDNAKNSVYLQMNSLKPEDTAVYYCNRDYGLQRYRGWYQYNYWGQGTQVTVSS | low polyreactivity
11 | QVQLVESGGGLVQAGGSLRLSCAASGITFWYYAMGWSRQEPGKERELVAGISRSDSNTYYADSVKGRFTISRDNAKNTLYLQMNSLKPEDTAVYYCSAYYYRRRYGGKYDYWGQGTQVTVSS | high polyreactivity
12 | QVQLVESGGGLVQAGGSLRLSCAASGRTFLYNAMGWYRQAPGKERELVAAISWNGGSTYYADSVKGRFTISRDNAKNTVYLQMNSLKPEDTAVYYCNAVYRPRVGRRFPTGYDYWGQGTQVTVSS | high polyreactivity
13 | QVQLVESGGGLVQAGGSLRLICAASGSIFTHNTMGWYRQAPGKERELVASIDSGASTNYADSVKGRFTISRDNAKNTVYLQMNSLKPEDTAVYYCAADDAKFRYRDDYWGQGTQVTVSS | low polyreactivity
14 | QVQLVESGGGLVQAGGSLRLSCAASGSTFRRNAMGWYRKAPGKERELVAAISSTGGSTRYADSVKGRFTISRDNAKNTVYLQMNSLKPEDTAVYYCAARFSASGSFYYWGQGTQVTVSS | high polyreactivity
15 | QVQLVESGGGLVQAGGSLRLSCAASGSIFFQYGMGWYRQAPGKEREFVAAISVSGGSTYYADSVKGRFTISRDNAKNTVYLQMNSLKPEDTAVYYCAAEFRGDTTSLVYASSYDYWGQGTQVTVSS | low polyreactivity
16 | QVQLVESGGGLVQAGGSLRLSCAASGYTFSHYAMGWYRQAPGKERELVAGITWSGGSTYYADSVKVRFTISRDNAKNTVYVQMNSLKPEDTSVYYCAAKYYWYYSYSGIPLFDYWGQGTQVTVSS | low polyreactivity
17 | PLQLVESGGGLVQAGGSLRLSCAASGRTFRATTMGWYRQAPGKERELVAAISHSGGSTYYADSVKGRFTISRDNAKNTVYLQMYSLKPEDTAVYYCATDGGSYSWASPRVDYWGQGTQVTVSS | low polyreactivity
18 | QVQLVESGGGLVQAGGSLRLICAASGITFPHYAMGWYRQAPGKEREYVAAISKRAGSTYYADSVKGRFTISLDNAKNTVYLQMNSLKPEDTSVYYCAADDRYYSPYGFKYWGQCTQVTVSS | high polyreactivity
19 | QVQLVESGGGLVQAGGSLRSSCASSGSIFDGNTMGWYRQAPGKERELVAAISYSGGSTYYADSVKGRFTISRDNAKNTVYLQMNSLKPEDTAVYYCAAEWYGYQEDDYWGQGTQVTVSS | low polyreactivity
20 | QVQLVESGGGLVQAGGSLSLSCAASGSIFVYKAMGWYRPAHGKERELVAAISSSGGSTYYADSVKGRFTISRDNAKNTVYLQMNSLKPEDTAVYYCAAEAVRKVPSYYSYAYYYWGQGTQVTVSS | high polyreactivity
21 | QVQLVESGGGLVQAGGSLRLSCAASGFTFRDYAMGWYRQAPGQERELVATITWRVGSTFYADSVKGRFTISRDNAKNTVYLQMNTLKPEDTADDYCAARWSTSYGPFDYWGQGTQVTVSS | low polyreactivity
22 | QVQLVESGAGIVQAGGSLRLSCAASGLTFANYVMGGYRQAPGKERELVAAISRSGGSTYYADSVKGRFTISRDNAKKTVNLQMNCLKPEDTAVYYCAAAAWDPKGSRYDSWGQGTQVSVSS | low polyreactivity

Row | Sequence | polyreactivity (PSR sort gate)
23 | QVQLVESGGGLVQAGGSLRLSCAASGNIFATYAMGWYRHAPGKEREFVAAITSRGGGTFYADSVKGRFTISRDNAKNTVYLQMNSLKPEDTAVYYCAARRSGHWLYGYWGQGTQVTVSS | high polyreactivity
24 | QVQLVESGGGLVQAGGSLRLSCAASGSIFRFNAMGWYRQAPGKERELVATISRSGGSTYYADSVKGRFTISRDNAKNTVYLQMNSLKPEDTAVYYCAADAYPTWPEYDGLYFKYDYWGQGTQVTVSS | high polyreactivity
25 | QVQLVESGGGLVQAGGSLRVSCAASGFTFRGYAMGWYRQAPGKERELVAAIRRGVITNYADSVKGRFTISRDNAKNTVYLQMHSLKPEDTAVYYCAAGNITPYRYYHGYYQSIYDYWGQGTQVTVSS | low polyreactivity
26 | QVQLGESGGGLVQAGGSLRLSCAASGITFERNAMGWYRQAPGKERELVAAWSGGGTYYADSVKGRFTISRDNAKNTVYLQMDSLKPEDTAVYYCAADYRYDLSIGVNYWGQGTQVTVSS | low polyreactivity
27 | QVQLVESGGGLVQAGGSLRLSCAASGRIFQWYAMGWYRQAPGKERELVAAISWRDGRTYYADSVKGRFTISRDNAKNNVYLQMNSLKPEDTAVYYCAVRTFGRYGYWGQGTQVTVSS | high polyreactivity
28 | QVQLVESGGGLVQAGGSLRLSCAASGSTFYIYAMGWYRQAPGKERELVARISGSGGSTYYADSVKGRFTISRDNAKNTVYLQMNSLKPEDTAVYYCAADDIYKYYQYYAFPYYRYDYWGQGSQVTVSS | low polyreactivity
29 | QVQLVESGGGLVQAGGSLRLSCAASGSIYESYAMGWYRQAPGKERELVADITYDGGITYYADSVKGRFTISRDNAKNTVYLQMNSLKPEDTAVYYCATEYRYWLSDYSTYFPYDYWGQGSQVTVSS | low polyreactivity
30 | QVQLVESGGGLVQAGGSLRLSCAASGSTLGYYTMGWYRQAPGKERELVAAISGSGVTTSYADSVKGRFTISRDTAKNTVYLQMNSLKPEDTAVYYCARRYRVGTTGGDYWGQGTQVTVSS | high polyreactivity
31 | QVQLVESGGGLVQAGGSLRLSCAAYGNTLDVNAMGWYRQAPGKERELVPAITSGGSTNYADSVKGRFTISRDNAKNTVYLQMNSLKPEDTAVYYCAKGSGVTYVTETLNTDYGYWGQGTQVTVSS | low polyreactivity
32 | QVQLVESGGGLVQAGGSLRLSCAPSGIIYRYYGMVWYRQAPGKERELVAVITNSDGSTYYADSVKGRFTISRDNAKNTVYLQQYSLKPEDTAVYYCAARGITSRQRYYWGQGTQVTVSS | low polyreactivity
33 | QVQLEESGGGLVQAGGSLRLSCAASGSISVRYTMGSYRQAPGKERELVAGISRSGGTTYADSVKGRFTISRDNGKNTVYLQMNSLKQEDTAVYYCAAELRRGSGRSYKGYYYWGQGTQVSVSS | low polyreactivity
34 | QVQLVESGGGLVQAGGSLRLSCAASGFTFGYYAMGWYRQAPGKERELVAAITNSGGSTYYADSVKGRFTISRDNAKNTVYLQMNSLKPEDTAVYYCAAEISILPFVTPDTIYGYWGQGTQVTVSS | low polyreactivity
35 | QVQLVESGGGLVQAGGSLRLSCAASGRTFYYYAMGWYRQAPGKERELVAAISWGGGRTYYADSVKGRFTISRDNAKNTVYLQMNSLKPEDTAVYYCNAVRTTPSGSLPLAYDYWGQGTQVTVSS | low polyreactivity
36 | QVQLVESGGGIVQAGGSLRLSCAASGSSFWRNTMGWYRQAPGKERELVAGISSTGTSTYYADSVKGRFTISRDNAKNTVYLQMNSLKPEDTAVYYCAAAYRNRKYDYWGQGTQVTVSS | high polyreactivity
37 | QVQLVETGGGLVQAGGRLRLSCAASGSTFGSYAMGWYRQAPGKERELVATITESDGTTYYADSVKGSFTISRDNAKNTVYLQMNSLKREDTAVYYCAANYSGDRKRYWPGDTDDYWGQGTQVTVSS | high polyreactivity
38 | QVQLVESGGGLVQAGGSLRLSCAASGSTLTEYAMGWYRQAPGKEREFVAAISRSAGSTYYADSVKGRFTISRDNAKNTVYLQMNSLKPDDTAVYYCAVAVRVGFDYFSGQADIYYYWGQGTQVTVSS | low polyreactivity
39 | QVQLQESGGGLVQAGGSLRLSCAASGNFFDADIMGWYRQAPGKERELVASITDGGSTNYAVSVKGRFTISRGNTKNTVYLLMNCLKPEDTSVYYCAAIAYPDIPTYFDYNSDYFYWGQGTQVTVSS | high polyreactivity
40 | QVQLVESGGGLVQAGGSLRLICDASGSTFAYNDMGWYRQAPGKERELVAAITYSGGSTYYADSVKGRFTISRDNAKNTVSLQMNSLKPEDTAVYYCNAYTGYPYEYWGQGTQVTVSS | low polyreactivity
41 | QVQLVESGGGLVQAGGSLRLSCAASGRIFYLYAMGWYRQAPGKERELVAAITWSGGSTTYADSVKGRFTISRDNAKNTVYLQMNSLKPEDTAVYYCNADGWIFPSFSPMDYWGQGTQVTVSS | low polyreactivity
42 | QVQLQVSGGDLVQAGGSLRMSCAASGTIYGLTSMGWNRQAPGKEREFVAAITDGGNTNYADSVKGRFTISRDNAKNTVYLQMISLKPEDTAVFYCAVLFSDDAYYAYWGQGTQVNVSS | low polyreactivity
43 | QVQLVESGGGLVQAGGSLRLSCAASGSIFPRNAMGWYRQAPGKERELVAAITSSGGTTYYADSVKGRFTISRDNAKNTVYLQMISLKPEDTAVYYCNAAYPYSSVGRDYWGQGTQVTVSS | high polyreactivity
